Paper PMC9189065

What was measured:
[1] = target: mouse METAP1(1-59) (mouse) (UniProt Q8BP48); test: other fluorescence titration
[2] = target: mouse METAP1(1-79) (mouse) (UniProt Q8BP48); test: other fluorescence titration

## mouse ZNG1 N-terminal peptide, synthetic
[1]
  Kd: 100 nM
  stoichiometry N: 1
[2]
  Kd: 100 nM
  stoichiometry N: 1
